{"source": "paper PMC8015787", "proteins": {"B1": {"name": "1-deoxy-D-xylulose 5-phosphate synthase (DXPS) (Escherichia coli K-12) (protein)", "chain": "SFDIAKYPTLALVDSTQELRLLPKESLPKLCDELRRYLLDSVSRSSGHFASGLGTVELTVALHYVYNTPFDQLIWDVGHQAYPHKILTGRRDKIGTIRQKGGLHPFPWRGESEYDVLSVGHSSTSISAGIGIAVAAEKEGKNRRTVCVIGDGAITAGMAFEAMNHAGDIRPDMLVILNDNEMSISENVGALNNHLAQLLSGKLYSSLREGGKKVFSGVPPIKELLKRTEEHIKGMVVPGTLFEELGFNYIGPVDGHDVLGLITTLKNMRDLKGPQFLHIMTKKGRGYEPAEKDPITFHAVPKFDPSSGCLPKSSGGLPSYSKIFGDWLCETAAKDNKLMAITPAMREGSGMVEFSRKFPDRYFDVAIAEQHAVTFAAGLAIGGYKPIVAIYSTFLQRAYDQVLHDVAIQKLPVLFAIDRAGIVGADGQTHQGAFDLSYLRCIPEMVIMTPSDENECRQMLYTGYHYNDGPSAVRYPRGNAVGVELTPLEKLPIGKGIVKRRGEKLAILNFGTLMPEAAKVAESLNATLVDMRFVKPLDEALILEMAASHEALVTVEENAIMGGAGSGVNEVLMAHRKPVPVLNIGLPDFFIPQGTQEEMRAELGLDAAGMEAKIKAWLA"}}, "substrate": "O=CCO", "assay": "O2 consumption", "format": "biochemical, Escherichia coli", "details": "thiamin diphosphate (ThDP), Mg2+ active site; donor (and acceptor) substrate", "data": [{"protein": "B1", "values": [{"measurement": "Km", "result": "920 ± 120", "unit": "µM"}]}]}
